Tests used:
[1] = biological target: T1, CPXV14-His (His-tagged recombinant cowpox virus Brighton Red CPXV14) (cowpox virus (Brighton Red strain)); test: BLI
[2] = biological target: T1, CPXV14-His (His-tagged recombinant …); test: BLI; remark: listed apart in the source

B1: soluble recombinant murine FcγRIIB (mCD32B) ectodomain (receptor)
chain: THDLPKAVVKLEPPWIQVLKEDTVTLTCEGTHNPGNSSTQWFHNGRSIRSQVQASYTFKATVNDSGEYRCQMEQTRLSDPVDLGVISDWLLLQTPQLVFLEGETITLRCHSWRNKLLNRISFFHNEKSVRYHHYSSNFSIPKANHSHSGDYYCKGSLGRTLHQSKPVTITVQGPKSSRSLP
B1 showed a koff [1] of 0.00198 s⁻¹ and a Kd [2] of 2.94 nM.

Reference: PMC9521928 (2022)
